B1: cdh (dsDNA)
DNA 1: GCGAGCAGGGCTGCCGCACAGCGATCTT
DNA 2: AAGATCGCTGTGCGGCAGCCCTGCTCGC
B2: pks3 -653 (dsDNA)
DNA 1: GGCGGCCCACTGCGCCTGCACCGCCGTGTTGG
DNA 2: CCAACACGGCGGTGCAGGCGCAGTGGGCCGCC
B3: umaA (dsDNA)
DNA 1: TGACGCAAGGCGAGATCACAGACCGAGA
DNA 2: TCTCGGTCTGTGATCTCGCCTTGCGTCA
B4: phoP -64 (dsDNA)
DNA 1: GACTGTTAGCAGACTACTGGCAACGAGCTTTC
DNA 2: GAAAGCTCGTTGCCAGTAGTCTGCTAACAGTC
B5: lipF -572 (dsDNA)
DNA 1: AGACGTACAGCAAACTCCCAGTCATACA
DNA 2: TGTATGACTGGGAGTTTGCTGTACGTCT
B6: fas (dsDNA)
DNA 1: CGGCGTAGAGCGAATTCCCAGCATAACG
DNA 2: CGTTATGCTGGGAATTCGCTCTACGCCG
B7: cfp2 (dsDNA)
DNA 1: TCGCTCACAGCTACGACACAGACTTGCC
DNA 2: GGCAAGTCTGTGTCGTAGCTGTGAGCGA
B8: papA4 (dsDNA)
DNA 1: AGTATCACTGCCCGATCACCGGTCGCCC
DNA 2: GGGCGACCGGTGATCGGGCAGTGATACT
B9: fbpA (dsDNA)
DNA 1: ATACTGACAGCAAGATCACAATTGAGCC
DNA 2: GGCTCAATTGTGATCTTGCTGTCAGTAT
B10: Rv1639c (dsDNA)
DNA 1: CGGATCACAGGAAACCCCCAACAAATCA
DNA 2: TGATTTGTTGGGGGTTTCCTGTGATCCG
B11: espA -215 (dsDNA)
DNA 1: CGCATTGTCGCAGCGCAGTTGCAGGAGGGCAA
DNA 2: TTGCCCTCCTGCAACTGCGCTGCGACAATGCG
B12: devR -155 (dsDNA)
DNA 1: GTGCGTGCCGTCATCTGGCCGCCAACGCAA
DNA 2: TTGCGTTGGCGGCCAGATGACGGCACGCAC
B13: PE8 (dsDNA)
DNA 1: CAGATCACACCGCCATGTCAGCCGCCAA
DNA 2: TTGGCGGCTGACATGGCGGTGTGATCTG
B14: phoP -55 (dsDNA)
DNA 1: AGACTACTGGCAACGAGCTTTCAGGAATTACAC
DNA 2: GTGTAATTCCTGAAAGCTCGTTGCCAGTAGTCT
B15: aroG (dsDNA)
DNA 1: TTCGTCTCATCACGTCCACAGACGATGC
DNA 2: GCATCGTCTGTGGACGTGATGAGACGAA
B16: devR -146 (dsDNA)
DNA 1: CGTCATCTGGCCGCCAACGCAAAGCCGGGTCA
DNA 2: TGACCCGGCTTTGCGTTGGCGGCCAGATGACG
B17: icl -343 (dsDNA)
DNA 1: GACCGCGCTGTTACAACGCTCACATATGTGG
DNA 2: CCACATATGTGAGCGTTGTAACAGCGCGGTC
B18: PPE19 (dsDNA)
DNA 1: CCGTTCTCCGGACAATCACGGCCCGACC
DNA 2: GGTCGGGCCGTGATTGTCCGGAGAACGG
B19: Rv3877 (dsDNA)
DNA 1: CTCGGCGCAGCGCGCGCTCAGCGACGCC
DNA 2: GGCGTCGCTGAGCGCGCGCTGCGCCGAG
B20: Rv3881c (dsDNA)
DNA 1: ATGGTCACAGTCGGGCCACAGTTCGAG
DNA 2: CTCGAACTGTGGCCCGACTGTGACCAT
B21: pks3 -236 (dsDNA)
DNA 1: CGACGTCTGGTAGCGGCATGGCAACGGCCTGTG
DNA 2: CACAGGCCGTTGCCATGCCGCTACCAGACGTCG
B22: sirA (dsDNA)
DNA 1: CGTCTCCCAGCGGATTCCCGGGTCGGCC
DNA 2: GGCCGACCCGGGAATCCGCTGGGAGACG
B23: icl +20 (dsDNA)
DNA 1: ACCCCGAAGAGCGCGGAGCAGATCCAGCAGG
DNA 2: CCTGCTGGATCTGCTCCGCGCTCTTCGGGGT
B24: wbbL2 (dsDNA)
DNA 1: TGGATCGCTGCCGATACACCGCCGATTT
DNA 2: AAATCGGCGGTGTATCGGCAGCGATCCA
B25: ptrBa -244 (dsDNA)
DNA 1: ATCTTCACACCGGACTCGTCGCGGTACT
DNA 2: AGTACCGCGACGAGTCCGGTGTGAAGAT
B26: PPE50 (dsDNA)
DNA 1: CTTTTCACAGCAAAGTCCCAGAAATGGC
DNA 2: GCCATTTCTGGGACTTTGCTGTGAAAAG
B27: Rv1217c (dsDNA)
DNA 1: GAGGTCGCAGCCGAGCAACAGGTGGCAA
DNA 2: TTGCCACCTGTTGCTCGGCTGCGACCTC
B28: ptrBa -162 (dsDNA)
DNA 1: TTGTCCGCAGCTGGCTCACCGGCTCCGA
DNA 2: TCGGAGCCGGTGAGCCAGCTGCGGACAA
B29: Rv2633c (dsDNA)
DNA 1: TGATTCACAGCTACCTCACATTAATGGG
DNA 2: CCCATTAATGTGAGGTAGCTGTGAATCA
B30: Rv0964c (dsDNA)
DNA 1: GCGCGCACGGCACACGCACCGCATCGGC
DNA 2: GCCGATGCGGTGCGTGTGCCGTGCGCGC
B31: Rv3312a (dsDNA)
DNA 1: TGGGTCACAGCGAGTAATCAGCAAGTTC
DNA 2: GAACTTGCTGATTACTCGCTGTGACCCA
B32: icl -301 (dsDNA)
DNA 1: CCCAAGGCAGTCGCCTCGCTGTTCAATCTGT
DNA 2: ACAGATTGAACAGCGAGGCGACTGCCTTGGG
B33: icl -350 (dsDNA)
DNA 1: GGTTGGTCGACCGCGCTGTTACAACGCTCAC
DNA 2: GTGAGCGTTGTAACAGCGCGGTCGACCAACC
B34: Rv2331 (dsDNA)
DNA 1: GTCCTCGCAGCAAGAAAACAGCGAAAGC
DNA 2: GCTTTCGCTGTTTTCTTGCTGCGAGGAC
B35: Rv1517 (dsDNA)
DNA 1: CATTTTTCAGCAATTTCTCAGTAACGCT
DNA 2: AGCGTTACTGAGAAATTGCTGAAAAATG
B36: Rv2010 (dsDNA)
DNA 1: GAACTCGTGGCCGCCGCACAGCGGATGT
DNA 2: ACATCCGCTGTGCGGCGGCCACGAGTTC
B37: phoP -42 (dsDNA)
DNA 1: ACGAGCTTTCAGGAATTACACAATGACTGTG
DNA 2: CACAGTCATTGTGTAATTCCTGAAAGCTCGT
B38: cyp123 (dsDNA)
DNA 1: AGATCCACCGCCGCATCACATCGGCGAT
DNA 2: ATCGCCGATGTGATGCGGCGGTGGATCT
B39: Rv3143 (dsDNA)
DNA 1: AACCGCACAGCCCTCTAACCACTGCTCG
DNA 2: CGAGCAGTGGTTAGAGGGCTGTGCGGTT
B40: cadI (dsDNA)
DNA 1: CGGTACACAGCGCTTGCAGGGCTTCAGG
DNA 2: CCTGAAGCCCTGCAAGCGCTGTGTACCG
B41: pks2 (dsDNA)
DNA 1: AAAGACACAGCTACATCGAAGGATTGCT
DNA 2: AGCAATCCTTCGATGTAGCTGTGTCTTT
B42: hsp (dsDNA)
DNA 1: CCGGACACAGCTAACTCACAACGAAGCA
DNA 2: TGCTTCGTTGTGAGTTAGCTGTGTCCGG
B43: fadD21 (dsDNA)
DNA 1: CCTGTTTCAGCACATGCACAGCATTGCA
DNA 2: TGCAATGCTGTGCATGTGCTGAAACAGG
B44: icl -400 (dsDNA)
DNA 1: TCATCTCCCACGTTCACCCGGCTGGTTCG
DNA 2: CGAACCAGCCGGGTGAACGTGGGAGATGA
B45: Rv0520 (dsDNA)
DNA 1: GCCCGCACAGCCACGCCGTAGCACCGGC
DNA 2: GCCGGTGCTACGGCGTGGCTGTGCGGGC
B46: devR -116 (dsDNA)
DNA 1: CAGCTGTTCGTCGCGGACTCACACTCCGCGCAC
DNA 2: GTGCGCGGAGTGTGAGTCCGCGACGAACAGCTG

The values that follow come from article PMC4283936.

This data set has as its target PhoP (Mycobacterium tuberculosis, UniProt P71814 1-247). The data set is described as follows: ITC. In general terms: ITC needs no label: the signal is the heat of the interaction.
As to B1, binding was put at a Kd of 935 ± 52 nM.
Regarding B2, the binding result is “no binding”.
For B3, the Kd was 1200 ± 58 nM.
B4: the binding result is reported as “no binding”.
Regarding B5, binding was characterised by a dissociation constant (Kd) of 115 ± 8 nM.
The same measure, in the same setting: with B6 the figure was 144 ± 6 nM; with B7, 21.4 ± 1.6 nM.
As for B8, the binding result is given as “no binding”.
B9 had a Kd of 56.5 ± 2.6 nM.
Regarding B10, the Kd was found to be 198 ± 12 nM. Against the preceding molecule, the Kd is about 3.5-fold higher.
Still for that read-out and setting: with B11 the figure was 1590 ± 50 nM.
Consider B12, for which the binding result is “no binding”.
B13: the binding result is listed as “no binding”.
B14 came in with a Kd of 104 ± 10 nM.
For B15, the Kd came out at 1160 ± 41 nM.
With B16, the binding result is recorded as “no binding”.
On to B17, for which the binding result is given as “no binding”.
Consider B18, for which the binding result is reported as “no binding”.
Consider B19, for which the Kd was determined as 1150 ± 66 nM.
B20 registered a Kd of 714 ± 51 nM.
Consider B21, for which binding was characterised by a dissociation constant (Kd) of 130 ± 11 nM.
Same read-out and setting: with B22 the figure was 332 ± 17 nM.
As to B23, the binding result is given as “no binding”.
As to B24, the binding result is listed as “no binding”.
Same read-out and setting: with B25 the entry was “no binding”.
Regarding B26, the Kd was found to be 45.7 ± 1.7 nM.
The same measure, in the same setting: in the case of B27 it was 588 ± 17 nM; in that of B28, 980 ± 77 nM; in that of B29, 37 ± 3.7 nM.
On the same count and under the same terms, with B30 the figure was 4350 ± 189 nM.
Regarding B31, the Kd is 160 ± 8 nM.
As to B32, the binding result is recorded as “no binding”.
For B33, the binding result is given as “no binding”.
On to B34, for which the Kd is 130 ± 6.1 nM.
Consider B35, for which the binding result was “no binding”.
The molecule B36 displayed a Kd of 637 ± 16 nM.
Regarding B37, the binding result is recorded as “no binding”.
Still for that read-out and setting: with B38 the entry was “no binding”.
Still for that read-out and setting: in the case of B39 it was “no binding”.
As to B40, binding was put at a Kd of 403 ± 20 nM.
Same read-out and setting: with B41 the figure was 154 ± 12 nM; with B42, 51.5 ± 4.3 nM.
Same read-out and setting: with B43 the figure was 50.3 ± 4.3 nM.
As to B44, the binding result is given as “no binding”.
B45 showed a Kd of 472 ± 20 nM.
Turning to B46, the binding result is on record as “no binding”.

What is called Kd is the constant that tells how readily two partners part at equilibrium. Read a high Kd as lower affinity.
